Laboratory results: patent US20250179215A1, “PLASMIN-BINDING VHHS” (RHEINISCHE FRIEDRICH-WILHELMS-UNIVERSITÄT BONN, priority 2022, published 2025)
Each block holds one molecule with its values, some of them ahead of it.

Columns and labels:
[1] = test system: citrate-anticoagulated pooled normal human plasma; test: Rotational thrombelastometry clot formation parameters in plasma; format: biochemical; conditions: VHHs or BPTI 2.4 μM, TXA 2.4 μg/ml; tPA 0.1 μg/ml
Description: FIG. 10. The impact of VHHs on the clot formation parameters in plasma monitored by rotational thrombelastometry. […] After addition of tPA to reach a final concentration of 0.1 μg/ml, coagulation was initiated by addition of recombinant tissue factor (Dade® Innovin®) dissolved 1:100 in calcium chloride solution (0.2 M). The viscoelasticity of the formed clot was measured in terms of (A) clotting time, (B) maximum clot firmness, and (C) maximum clot elasticity. A non-binder VHH (GFP-enhancer VHH) was used as negative control. Mean values and SD were calculated out of three measurements.
(§1) The impact of VHHs on the fibrinolytic activity in plasma and whole blood was monitored using rotational thrombelastometry using the ROTEM delta system (TEM Innovations Ltd., Munich, Germany). […] After addition of 0.1 μg/ml tPA, coagulation was initiated by addition of recombinant tissue factor (Dade Innovin, Siemens Healthcare, Marburg, Germany) dissolved 1:100 in calcium chloride (0.2 M). The viscoelasticity of the formed clot was measured in terms of key parameters including clotting time, maximal clot firmness, maximum clot elasticity, maximum lysis, lysis index after 60 minutes, and lysis onset time.

[2] = test system: citrate-anticoagulated whole blood; test: Rotational thrombelastometry clot lysis in tPA-spiked whole blood; format: biochemical; conditions: tPA-spiked whole blood
Excerpt: To further test the fibrinolysis-activating properties of VHHs in an ex-vivo model of hyperfibrinolysis, a whole blood based assay can be used whereat citrate-anticoagulated whole blood in the presence of VHHs is spiked with tPA and clot formation and the fibrinolysis rate of the formed clot monitored by thrombelastometry after initiation of clotting by addition of CaCl2) solution containing recombinant TF.
FIG. 4. Influence of VHHs on endogenous fibrinolysis. (A) Citrate-anticoagulated whole blood was mixed with VHHs A11 or C5 and with tPA to achieve a final concentration of 0.5 μg/ml and clot formation was induced by addition of CaCl2) (0.2 M). (B) Lysis index at 60 min(C) Maximum lysis rates, and (D) lysis onset time were recorded. Mean values and SD were calculated out of three measurements.
as §1

plasminogen = target: T1, plasminogen (Homo sapiens, UniProt P00747); test: Plasmin generation assay (tPA-mediated plasminogen activation, purified system); format: biochemical; conditions: at the assessed / higher concentrations
T1 construct: Plasma derived human Glu-plasminogen; purchased Haematologic Technologies, Inc. (plasminogen); Boehringer Ingelheim (tPA)
Description: In order to assess the influence of VHHs on tPA-mediated plasminogen activation, plasminogen was preincubated with increasing concentrations of VHHs. After addition of tPA, plasmin generation was measured over time using a fluorogenic plasmin peptide substrate.
FIG. 5. Influence of VHHs on tPA-mediated plasminogen activation. […] After addition of tPA (10 nM final concentration) plasmin generation was measured over time using the fluorogenic plasmin assay. The data are presented as mean±SD of three independent measurements.
Plasminogen (50 nM) was incubated with VHHs (2 μM to 0.2 μM) for 30 min at 37° C. in assay buffer. Subsequently, 20 μl of 50 nM tPA was added to the mixture and incubated at 37° C. After 3 hours of incubation at 37° C., 50 μl of the mixture were transferred to the wells of black F16 Fluoronunc modules and after addition of 50 μl of the plasmin-specific fluorogenic substrate (800 μM) fluorescence intensities were measured at λex of 360 nm and λem of 460 nm using the Synergy 2 microplate reader.

plasmin [3] = target: T2, plasmin (Homo sapiens, UniProt P00747); test: Stability of plasmin (autocatalytic degradation) in activation buffer; format: biochemical; conditions: 100 mM TXA or lysine in buffer
T2 construct: human Lys-plasmin which is prepared from homogeneous Glu-plasminogen using uPA; purchased Haematologic Technologies, Inc. (Essex Junction, VT)

plasmin [4] = target: T2, plasmin; test: Michaelis-Menten kinetics of plasmin-mediated cleavage of fluorogenic peptide substrate; format: biochemical; conditions: plasmin 5 nM; VHHs 1 μM, BPTI 3 nM, TXA 7.86 mg/ml; w/o ligand 51.8
Description: Subsequently, 50 μl of the fluorogenic substrate (3.16-3,160 μM final concentration in assay buffer) was added. Substrate hydrolysis rates were monitored by kinetic measurements using the Synergy 2 microplate reader. Apparent Michaelis-Menten constants (Km) and the turn-over number (kcat) values for substrate hydrolysis were calculated from best fit values of the Michaelis-Menten equation and the catalytic efficiencies were expressed as ratios of kcat/Km.
CI, confidence interval. ^a The turnover number (kcat) was calculated using Vmax values extracted from Michaelis-Menten least squares fit.

plasmin [5] = target: T2, plasmin; test: Activated factor V-inactivation assay (prothrombinase assay); format: biochemical
Description: FIG. 6. (A) Influence of VHHs on plasmin-mediated FVa cleavage. Plasmin (1.5 nM) was incubated with increasing concentrations of VHHs for 30 min at 37° C. After addition of FVa (30 pM) and further incubation for 30 min, FXa (0.52 pM), prothrombin (10 nM) and a fluorogenic thrombin substrate (100 μM) were added and the FVa-dependent thrombin generation was measured. The FVa inactivation rate measured in the absence of VHHs or plasmin inhibitors was set as 100%. […] The data are presented as mean±SD of two independent measurements.
Plasmin-mediated inactivation of activated factor V (FVa) was measured using a prothrombinase assay as recently described (Hamedani 2020). Briefly, 1.5 nM plasmin in assay buffer (20 mM Tris-HCl, 137 mM NaCl, 10 mg/ml phospholipids, 5 mM CaCl2, 1 mg/ml BSA, pH 7.4) was preincubated with VHHs (0.1 nM-10 μM final concentrations) for 30 min at 37° C. Then, 60 μl of the mixture were mixed with 60 μl of […] FVa. After further incubation for 30 min, 25 μl of the reaction mixture were mixed with 50 μl of 1.3 μM human FXa and 100 μM fluorogenic thrombin substrate (Boc-Asp(OBzl)-Pro-Arg-AMC) and 50 μl of 10 nM human prothrombin. Thrombin catalyzed substrate hydrolysis was monitored at λex of 360 nm and λem of 460 nm using the Synergy 2 microplate reader.

plasmin [6] = target: T2, plasmin; test: Plasmin inhibition assay (α2-AP-mediated plasmin inactivation); format: biochemical; conditions: α2AP alone, molar excess of α2AP over plasmin
Description: FIG. 7. Impact of VHHs binding on α2-AP-mediated plasmin inactivation. […] After 30 min of incubation, the residual activity of plasmin was measured by addition of 50 μl of the sample to 50 μl of a plasmin-specific fluorogenic substrate (400 μM). The plasmin activity in the wells in the absence of VHHs and α2AP was considered as 100% activity and relative residual plasmin activities calculated accordingly. The data are presented as mean±SD of three independent measurements.
After incubation for 30 min at 37° C., 50 μl of the mixture were transferred to the wells of black F16 Fluoronunc modules and 50 μl of plasmin-specific fluorogenic substrate (800 μM) were added and substrate hydrolysis measured at λex of 360 nm and λem of 460 nm. The plasmin activity in the reactions containing all reagents except α2-AP was set as 100%.

human plasmin [7] = target: T3, human plasmin (human, UniProt P00747 97-580; P00747 581-810); test: competition ELISA: A11 coated on the plate (10 µg/ml), plasmin 10 nM with free C5 as competitor of immobilized A11; bound plasmin read by hydrolysis of a fluorogenic substrate
T3 construct: domain: heavy chain or A-chain;domain: light chain that contains the serine protease domain; Two-chain protease derived from plasminogen; also called PLM; human Lys-plasmin
Description: (§2) FIG. 2. VHHs competition ELISA. […] Data represent the mean±SD of two measurements.
(§3) To assess the competition of VHHs for similar or overlapping binding sites on the plasmin molecule, a competition ELISA was performed. Microtiter (96-well) plates were coated with VHHs (10 μg/ml in coating buffer, 100 μl/well) at 2-8° C. overnight. Wells were washed and non-specific protein-binding sites were blocked with 20 mg/ml bovine serum albumine (BSA) for 2 h at RT. After removing the blocking buffer, wells were overlaid with a reaction mixture containing plasmin (10 nM) and VHHs (0.316 nM-31.6 μM) in buffer (20 mM HEPES, 154 mM NaCl, BSA 1 mg/ml, pH 7.4) for 30 min at RT. After washing the amount of bound plasmin was quantified through hydrolysis rates of the fluorogenic plasmin substrate (300 μM, 100 μl/well). The fluorescence intensity measured in the absence of free VHHs was set as 100%.

human plasmin [8] = target: T3, human plasmin; test: cell-based or functional assay
human plasmin [9] = target: T3, human plasmin; test: cell-based or functional assay; remark: listed apart in the source
human plasmin [10] = target: T3, human plasmin; test: competition ELISA: C5 coated on the plate (10 µg/ml), plasmin 10 nM with free C5 (self-competition); bound plasmin read by hydrolysis of a fluorogenic substrate
Description: as §2, §3

mouse plasmin = target: T4, mouse plasmin (mouse, UniProt P20918 98-581; P20918 582-812); test: BLI (BLItz), His-tagged VHH on anti-HIS biosensor
T4 construct: domain: heavy chain or A-chain;domain: light chain that contains the serine protease domain; Purchased from Haematologic Technologies

human plasminogen = target: T5, human plasminogen (human, UniProt P00747 20-810); test: BLI (BLItz), His-tagged VHH on anti-HIS biosensor
T5 construct: mature; Purchased plasma-derived Glu-plasminogen or in-house plasma-purified plasminogen; also called human PLG; plasma derived human Glu-plasminogen

mouse plasminogen = target: T6, mouse plasminogen (mouse, UniProt P20918 20-812); test: BLI (BLItz), His-tagged VHH on anti-HIS biosensor
T6 construct: mature; also called mouse Glu-plasminogen

[11] = target: T7, tissue plasminogen activator (recombinant tPA, Actilyse) (UniProt P00750 36-562); test: BLI (BLItz), His-tagged VHH on anti-HIS biosensor
T7 construct: Actilyse is recombinant human tPA (alteplase)

human plasmin [12] = target: T3, human plasmin; test: BLI (BLItz), His-tagged VHH on anti-HIS biosensor
human plasmin [13] = target: T3, human plasmin; test: competition ELISA: C5 coated on the plate (10 µg/ml), plasmin 10 nM with free A11 as competitor of immobilized C5; bound plasmin read by hydrolysis of a fluorogenic substrate
Description: as §2, §3

human plasmin [14] = target: T3, human plasmin; test: competition ELISA: A11 coated on the plate (10 µg/ml), plasmin 10 nM with free A11 (self-competition); bound plasmin read by hydrolysis of a fluorogenic substrate
Description: as §2, §3

T2 sequence (P00747 97-580 limits assumed): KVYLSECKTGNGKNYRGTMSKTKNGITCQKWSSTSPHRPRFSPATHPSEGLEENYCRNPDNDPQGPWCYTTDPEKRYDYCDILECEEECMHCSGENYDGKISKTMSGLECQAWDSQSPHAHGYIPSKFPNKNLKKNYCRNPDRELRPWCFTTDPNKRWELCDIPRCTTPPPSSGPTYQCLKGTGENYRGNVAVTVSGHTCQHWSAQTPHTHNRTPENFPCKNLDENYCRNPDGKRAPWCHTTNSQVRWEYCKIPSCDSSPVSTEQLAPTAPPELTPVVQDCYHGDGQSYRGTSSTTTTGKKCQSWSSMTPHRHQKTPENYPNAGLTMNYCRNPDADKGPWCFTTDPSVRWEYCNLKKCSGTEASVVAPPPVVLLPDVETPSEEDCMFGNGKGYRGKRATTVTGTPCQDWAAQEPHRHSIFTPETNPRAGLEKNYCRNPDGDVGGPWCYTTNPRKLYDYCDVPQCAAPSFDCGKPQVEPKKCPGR
T2 sequence (P00747 581-810 limits assumed): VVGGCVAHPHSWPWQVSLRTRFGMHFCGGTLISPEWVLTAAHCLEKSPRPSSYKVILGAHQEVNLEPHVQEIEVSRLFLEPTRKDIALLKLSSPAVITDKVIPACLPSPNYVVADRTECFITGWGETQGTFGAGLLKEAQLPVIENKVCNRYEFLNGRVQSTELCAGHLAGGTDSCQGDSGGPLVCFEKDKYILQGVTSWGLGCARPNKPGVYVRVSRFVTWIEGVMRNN
T3 sequence (P00747 97-580 limits assumed, chain 1 of 2): as the sequence (P00747 97-580 limits assumed) above
T3 sequence (P00747 581-810 limits assumed, chain 2 of 2): as the sequence (P00747 581-810 limits assumed) above
T6 sequence (P20918 20-812 limits assumed): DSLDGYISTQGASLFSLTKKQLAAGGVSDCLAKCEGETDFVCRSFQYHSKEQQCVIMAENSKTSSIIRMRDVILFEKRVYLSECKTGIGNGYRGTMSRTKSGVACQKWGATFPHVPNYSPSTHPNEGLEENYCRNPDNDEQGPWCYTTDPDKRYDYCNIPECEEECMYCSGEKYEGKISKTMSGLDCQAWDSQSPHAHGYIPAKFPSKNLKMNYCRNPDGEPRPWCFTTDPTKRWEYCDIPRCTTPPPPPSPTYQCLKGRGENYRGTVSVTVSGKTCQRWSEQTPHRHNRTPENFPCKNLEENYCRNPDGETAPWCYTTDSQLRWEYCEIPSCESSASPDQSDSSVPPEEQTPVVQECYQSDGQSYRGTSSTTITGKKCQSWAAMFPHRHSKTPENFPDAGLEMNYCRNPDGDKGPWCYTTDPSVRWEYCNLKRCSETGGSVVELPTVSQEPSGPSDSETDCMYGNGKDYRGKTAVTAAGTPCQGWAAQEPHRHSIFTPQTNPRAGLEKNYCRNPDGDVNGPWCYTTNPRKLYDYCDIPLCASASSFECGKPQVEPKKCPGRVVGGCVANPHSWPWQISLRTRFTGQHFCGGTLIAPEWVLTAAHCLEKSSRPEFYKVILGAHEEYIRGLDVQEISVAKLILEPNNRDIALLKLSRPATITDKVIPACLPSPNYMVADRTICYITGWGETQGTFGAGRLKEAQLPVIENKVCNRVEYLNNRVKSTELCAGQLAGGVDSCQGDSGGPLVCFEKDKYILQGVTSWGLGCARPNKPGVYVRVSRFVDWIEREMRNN
T5 sequence (P00747 20-810 limits assumed): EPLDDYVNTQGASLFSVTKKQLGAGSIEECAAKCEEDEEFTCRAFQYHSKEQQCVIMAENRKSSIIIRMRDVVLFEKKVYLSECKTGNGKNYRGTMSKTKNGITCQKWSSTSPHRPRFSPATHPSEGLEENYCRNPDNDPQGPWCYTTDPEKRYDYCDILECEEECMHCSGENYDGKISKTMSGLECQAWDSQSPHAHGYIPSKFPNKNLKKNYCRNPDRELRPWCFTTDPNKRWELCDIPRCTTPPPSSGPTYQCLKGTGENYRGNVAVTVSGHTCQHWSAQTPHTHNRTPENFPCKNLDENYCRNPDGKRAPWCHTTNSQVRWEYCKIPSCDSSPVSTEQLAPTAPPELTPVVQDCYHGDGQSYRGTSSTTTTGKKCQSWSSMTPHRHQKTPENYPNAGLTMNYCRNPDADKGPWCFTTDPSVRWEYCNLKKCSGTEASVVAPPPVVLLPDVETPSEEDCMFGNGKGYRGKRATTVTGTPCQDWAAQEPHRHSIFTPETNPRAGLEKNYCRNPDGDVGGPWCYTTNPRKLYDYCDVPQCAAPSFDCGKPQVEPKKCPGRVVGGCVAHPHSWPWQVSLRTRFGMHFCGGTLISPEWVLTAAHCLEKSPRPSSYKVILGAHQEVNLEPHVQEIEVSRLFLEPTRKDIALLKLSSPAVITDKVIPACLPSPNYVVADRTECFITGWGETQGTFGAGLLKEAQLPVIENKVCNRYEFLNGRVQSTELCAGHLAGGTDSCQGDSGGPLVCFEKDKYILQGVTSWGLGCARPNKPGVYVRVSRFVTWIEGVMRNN
T4 sequence (P20918 98-581 limits assumed, chain 1 of 2): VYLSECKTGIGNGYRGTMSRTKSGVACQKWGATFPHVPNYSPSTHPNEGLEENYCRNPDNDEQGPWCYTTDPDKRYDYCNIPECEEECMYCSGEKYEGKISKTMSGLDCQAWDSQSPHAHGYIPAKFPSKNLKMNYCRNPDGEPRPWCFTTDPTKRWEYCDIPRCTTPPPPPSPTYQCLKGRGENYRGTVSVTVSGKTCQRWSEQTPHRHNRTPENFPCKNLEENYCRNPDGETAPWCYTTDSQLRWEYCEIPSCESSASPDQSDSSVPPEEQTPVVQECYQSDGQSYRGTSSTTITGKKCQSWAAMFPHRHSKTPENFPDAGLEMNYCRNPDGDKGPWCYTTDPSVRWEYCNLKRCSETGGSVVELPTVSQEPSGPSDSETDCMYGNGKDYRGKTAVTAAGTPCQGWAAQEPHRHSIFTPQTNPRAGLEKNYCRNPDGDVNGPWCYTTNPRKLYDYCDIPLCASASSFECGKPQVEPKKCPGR
T4 sequence (P20918 582-812 limits assumed, chain 2 of 2): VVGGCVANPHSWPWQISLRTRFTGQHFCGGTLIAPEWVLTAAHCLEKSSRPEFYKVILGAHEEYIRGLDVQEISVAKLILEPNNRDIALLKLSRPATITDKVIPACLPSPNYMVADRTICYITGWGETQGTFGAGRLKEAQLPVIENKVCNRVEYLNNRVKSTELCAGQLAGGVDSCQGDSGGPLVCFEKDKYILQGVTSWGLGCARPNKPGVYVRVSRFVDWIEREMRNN
T7 sequence (P00750 36-562 limits assumed): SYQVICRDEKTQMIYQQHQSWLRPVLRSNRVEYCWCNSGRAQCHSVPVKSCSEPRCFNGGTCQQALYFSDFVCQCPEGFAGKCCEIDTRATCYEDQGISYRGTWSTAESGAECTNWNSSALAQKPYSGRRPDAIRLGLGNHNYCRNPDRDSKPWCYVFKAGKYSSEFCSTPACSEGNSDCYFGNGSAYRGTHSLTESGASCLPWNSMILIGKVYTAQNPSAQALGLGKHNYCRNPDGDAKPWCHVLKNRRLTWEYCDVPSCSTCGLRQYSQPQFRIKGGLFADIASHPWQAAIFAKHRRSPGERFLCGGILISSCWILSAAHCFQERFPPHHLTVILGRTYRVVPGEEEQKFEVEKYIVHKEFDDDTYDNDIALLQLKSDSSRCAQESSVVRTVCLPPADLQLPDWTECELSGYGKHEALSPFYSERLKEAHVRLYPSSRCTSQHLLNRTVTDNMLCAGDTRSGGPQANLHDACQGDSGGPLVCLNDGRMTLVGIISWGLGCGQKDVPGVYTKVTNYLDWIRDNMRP
T1 sequence (P00747 20-810 limits assumed): as the sequence (P00747 20-810 limits assumed) above

inhibition of plasmin generation at higher concentrations (plasminogen): plasmin generation is blocked
protection of plasmin from autocatalytic degradation (plasmin [3]): more effective than lysine
kcat × 10^3 (s^−1) mean (95% CI) (plasmin [4]): 42.1 (40-44) s^−1
maximal rate of inhibition of plasmin-mediated cleavage of FVa (plasmin [5]; TXA 316 μM or higher): 48%
FVa cleavage at lower TXA concentrations (plasmin [5]; lower TXA concentrations): accelerated
Molecule: NC[C@H]1CC[C@H](C(=O)O)CC1 [TXA, tranexamic acid, reference compound]
effect on fibrin clot formation parameters (clotting time, maximum clot firmness, maximum clot elasticity) [1]: does not affect
effect on lysis compared to VHHs (FIG. 4C, maximum lysis rates) [2]: inhibition of lysis

residual plasmin activity (plasmin [6]): < 0.1%
B1: alpha2-antiplasmin (protein)
chain: NQEQVSPLTLLKLGNQEPGGQTALKSPPGVCSRDPTPEQTHRLARAMMAFTADLFSLVAQTSTCPNLILSPLSVALALSHLALGAQNHTLQRLQQVLHAGSGPCLPHLLSRLCQDLGPGAFRLAARMYLQKGFPIKEDFLEQSEQLFGAKPVSLTGKQEDDLANINQWVKEATEGKIQEFLSGLPEDTVLLLLNAIHFQGFWRNKFDPSLTQRDSFHLDEQFTVPVEMMQARTYPLRWFLLEQPEIQVAHFPFKNNMSFVVLVPTHFEWNVSQVLANLSWDTLHPPLVWERPTKVRLPKLYLKHQMDLVATLSQLGLQELFQAPDLRGISEQSLVVSGVQHQSTLELSEVGVEAAAATSIAMSRMSLSSFSVNRPFLFFIFEDTTGLPLFVGSVRNPNPSAPRELKEQQDSPGNKDFLQSLKGFPRGDKLFGPDLKLVPPMEEDYPQFGSPK

IC50 (read off the curve) (human plasmin [7]): ~500 nM
Kcat/Km of plasmin-mediated cleavage of fluorogenic peptide substrate, VHH 1 µM (human plasmin [8]): 2.44e+08 M⁻¹ s⁻¹
kcat of plasmin-mediated cleavage of fluorogenic peptide substrate, VHH 1 µM (human plasmin [8]): 69900 s⁻¹
increase in plasmin peptide substrate conversion, at molar ratio of VHH over plasmin of 500 (human plasmin [9]): ~2.5 fold
IC50 (read off the curve) (human plasmin [10]): ~2000 nM
Kd (mouse plasmin): 172 nM
Kd (human plasminogen): > 100 nM
Kd (mouse plasminogen): > 1000 nM
Kd [11]: 213 nM
Kd (human plasmin [12]): 6.8 nM
B2: VHH C5 including C-terminal His6-tag (VHH)
VHH: QVQLVESGGGLVQAGGSLRLSCAASGRRFMVVAMGWYRQAPGNQRELVASITNGGTTNYAGSVKGRFTISGDSAKNTVYLHMNSLKPEDTAVYYCTTDVVFRDGNGQIQSNWGQGTQVTVSS
notes: Alpaca-derived

Kcat/Km of plasmin-mediated cleavage of fluorogenic peptide substrate, VHH 1 µM (human plasmin [8]): 2.28e+08 M⁻¹ s⁻¹
kcat of plasmin-mediated cleavage of fluorogenic peptide substrate, VHH 1 µM (human plasmin [8]): 67200 s⁻¹
IC50 (read off the curve) (human plasmin [13]): ~1000 nM
increase in plasmin peptide substrate conversion, at molar ratio of VHH over plasmin of 158 (human plasmin [9]): ~2.5 fold
IC50 (read off the curve) (human plasmin [14]): ~500 nM
Kd (mouse plasmin): 87.3 nM
Kd (human plasminogen): > 100 nM
Kd (mouse plasminogen): > 1000 nM
Kd [11]: 941 nM
Kd (human plasmin [12]): 4.7 nM
B3: VHH A11 including C-terminal His6-tag (VHH)
VHH: QVQLVETGGGLVQAGGSLRLSCAASGNIFSINAMDWYRQAPGKERELVAAITSGGTTNYADSVKGRFTISRDNAKDTVYLQMNSLKPEDAAFYYCNADGYYSDYDKNLAEFNSWGQGTQVTVSS
notes: Alpaca-derived
